The source of these data is US20230399358A1, “IMMUNOGLOBULIN PURIFICATION PEPTIDES AND THEIR USE” (North Carolina State University, priority 2019, published 2023).

“Also recorded” adds a separate entry of the source. No end group written: not given here.

The subject of data set [1] is human polyclonal IgG in CHO-S cell culture fluid. As to the kind of experiment: Static purification of IgG from CHO cell culture supernatant on peptide-Toyopearl resins, SDS-PAGE densitometry. The procedure: (§1) Measurement of IgG binding by peptide-based chromatographic adsorbents: For initial studies, 35 mg of MWRGWQ (SEQ ID NO:2)-Toyopearl, RHLGWF (SEQ ID NO:3)-Toyopearl, WQRHGI (SEQ ID NO:1)-Toyopearl, GWLHQR (SEQ ID NO:4)-Toyopearl, and HWRGWV (SEQ ID NO:18)-Toyopearl (control) resins were equilibrated in PBS pH 7.4, reaching a swollen volume of 0.1 mL, and subsequently incubated with 1 mg/mL IgG in 0.205 mg/mL CHO cell culture supernatant for 30 minutes. The resins were subsequently washed several times with PBS to remove non-specifically bound proteins. Elution was performed with 100 mM glycine buffer pH 2.5. Flowthrough and elution fractions were collected and analyzed by SDS PAGE under reducing conditions. The resulting gels were stained with Coomassie staining. Further, 25 mg of the adsorbents MWRGWQ (SEQ ID NO:2)-Toyopearl, NIFRGWQ (SEQ ID NO:21)-Toyopearl, MWRAWQ (SEQ ID NO:5)-Toyopearl, MWRGFQ (SEQ ID NO:7)-Toyopearl, MWRGWN (SEQ ID NO:22)-Toyopearl, (NorL) WRGWQ (SEQ ID NO:23)-Toyopearl, MGRGWQ (SEQ ID NO:24)-Toyopearl, MWRWQ (SEQ ID NO:6)-Toyopearl, MWRGGQ (SEQ ID NO:26)-Toyopearl, GWRGWQ (SEQ ID NO:8)-Toyopearl, WQRHGI (SEQ ID NO:1)-Toyopearl, WNRHGI (SEQ ID NO:12)-Toyopearl, WQRAGI (SEQ ID NO:28)-Toyopearl, WQRHAI (SEQ ID NO:11)-Toyopearl, WQRHGL (SEQ ID NO:9)-Toyopearl, FQRHGI (SEQ ID NO:29)-Toyopearl, and WQRHGV (SEQ ID NO:10)-Toyopearl resins were equilibrated in PBS pH 7.4, reaching a swollen volume of 0.1 mL, and subsequently incubated with 1 mg/mL IgG in PBS at pH 7.4 for 30 minutes. The amount of unbound IgG in the supernatant samples was quantified by Bradford assay and utilized to determine the IgG binding % by the peptide variants.
Characterization of IgG-binding peptide variants WQRHGI (SEQ ID NO:1), MWRGWQ (SEQ ID NO:2), RHLGWF (SEQ ID NO:3), and GWLHQR (SEQ ID NO:4) in competitive conditions: The four selected sequence variants were tested for their ability to purify human IgG from a CHO cell culture supernatant and found largely to mirror their in silico predictions. Even though they seemed to underperform in silico, RHLGWF (SEQ ID NO:3) and GWLHQR (SEQ ID NO:4) were tested alongside WQRHGI (SEQ ID NO:1) and MWRGWQ (SEQ ID NO:2) in these conditions in order to confirm their ability to bind IgG and examine their selectivity as predicted in silico. The feedstock was prepared by spiking human polyclonal IgG into a clarified null CHO-S cell culture fluid to obtain an IgG concentration of 1 mg/mL and a CHO HCP concentration of 0.205 mg/mL. An aliquot of 500 μL was loaded onto each peptide adsorbent in static conditions for 30 min. Following a washing step with PBS to remove loosely bound proteins, a first elution step was conducted using 0.1 M glycine buffer pH 2.5 to remove all bound proteins. Flow through fractions and pH 2.5 elution fractions were loaded neat and analyzed by SDS PAGE (FIGS. 6A-6B). The values of IgG purity in the eluted fractions were determined by densitometric analysis of the corresponding lanes on the gels, and are reported in Table 9.

Data set [2] shares this test system. Described as above. The settings on record: Gel B, lane E (pH 4).
Data set [3] in a line: Solubility of free peptide in buffer (preparation for ITC). Type of data set: physicochemical. The procedure: MWRGWQ (SEQ ID NO:2) was unable to be examined via ITC. Peptide MWRGWQ (SEQ ID NO:2) was not soluble in pH 7.4 buffer, likely due to self-associative properties. MWRGWQ (SEQ ID NO:2) was found soluble in highly acidic buffer, but ITC results were confounded by the heat of mixing between acidic and neutral solutions. […] Attempts were made to raise the pH of buffer in which MWRGWQ (SEQ ID NO:2) was dissolved, but the peptide was seen to gel when the pH was raised above 5.
MWRGWQ's (SEQ ID NO:2) binding affinity could not be examined using ITC. […] However, when the peptide was dissolved in a lower pH solution, the heat of mixing between the different pH solutions was extremely high, and peptide-peptide or peptide-IgG binding energies upon titration became difficult to differentiation from the heat of mixing in ITC experiments.

Data set [4] has as its system human IgG. Type of data set: binding. The procedure: as §1
A limited library of residue-by-residue changes confirmed the importance of each residue in peptides WQRHGI (SEQ ID NO:1) and MWRGWQ (SEQ ID NO:2) in reducing the binding energy between the peptide and the IgG target. […] This was accomplished by designing and constructing an ensemble of 20 variants of peptides WQRHGI (SEQ ID NO:1) and MWRGWQ (SEQ ID NO:2). Selected residues in positions 1-6 were mutated. The peptide variants were synthesized directly on Toyopearl AF-amino-650M resin via Fmoc/tBu chemistry. The resulting adsorbents were incubated with a solution of human IgG at 2 mg/mL at a ratio of 1 mL of resin per 3.5 mL of solution for 30 min at room temperature. The residual concentration of IgG in solution was determined by Bradford concentration assay of the supernatants and utilized to calculate the amounts of bound IgG per volume of resin; Table 7 reports the % binding, defined as mg IgG bound by variant/mg IgG bound by original sequence (either WQRHGI (SEQ ID NO:1) or MWRGWQ (SEQ ID NO:2))×100%, of each sequence variant.

Data set [5] relates to human polyclonal IgG in CHO cell culture fluid. In words: Chromatographic purification of IgG from CHO cell culture fluid on WorkBeads resin, SDS-PAGE densitometry. As to conditions: FIG. 8, reduced ligand density 35.2 milliequivalents/mL. Here is the method: Purification of IgG from CHO Cell culture fluids using MWRGWQC (SEQ ID NO:31)- and WQRHGIC (SEQ ID NO:30)—Workbeads: A volume of 0.1 mL of resin was packed in a PEEK microbore column, installed on a Waters 2695 unit, and equilibrated with PBS, pH 7.4. All chromatographic buffers were filtered through a compatible 0.2 μm filter prior to use. A volume of 100 μL of solution of human polyclonal IgG at 1 mg/mL in a CHO cell culture fluid at 0.205 mg/mL CHO HCPs was injected in the column at 0.02 mL/min (RT: 5 minutes). Following injection, the resin was washed with PBS at 0.2 mL/min and, subsequently, with 100 mM NaCl in PBS at 0.2 mL/min. Elution was then conducted with […] pH 4. An acidic cleaning step was conducted in 0.1 M glycine pH 2.5 to remove any proteins still bound. The absorbance of the effluent was monitored by UV/Vis spectrophotometry at 280 nm. Fractions were collected and adjusted to neutral pH. Total protein concentration was measured by BCA assay. All collected fractions were also analyzed via SDS PAGE under reducing conditions. The gel was stained by silver staining, and the overall IgG purity in the eluted fractions was determined by densitometric analysis using ImageJ software. Finally, the feed and eluted fractions were analyzed using a CHO-specific ELISA kit to determine the log removal value (LRV) of HCPs.
The high purity of the recovered IgG using WQRHGI (SEQ ID NO:1), as calculated by densitometric analysis (100%) was confirmed by the HCP LRV value of 2.7, thus indicating WQRHGI (SEQ ID NO:1) has purification abilities similar to Protein A. This is a remarkable result. […] The collected chromatographic fractions were analyzed by SDS-PAGE (FIG. 7B, silver stained to highlight diluted CHO HCPs). The % values of IgG in the fractions (expressed as a ratio of IgG concentration over total protein (e.g., IgG+CHO HCPs)) were calculated by densitometric analysis of the lanes in the SDS gel and were as follows: Control (C), 0.00%; Load (L) 59.77%; Flowthrough (FT), 0.00%; Elution 1 (El1), 100.00%; Elution 2 (El2), 0.00%; IgG 93.30%. […]

The test system of data set [6] is host cell protein (HCP). As to conditions: literature value; cited from earlier work.
Data set [7] deals with human polyclonal IgG (human). As to the kind of experiment: batch adsorption isotherm of IgG on peptide-WorkBeads resin, BCA of unbound IgG, Langmuir fit (KD(Solid)).
Data set [8] deals with human polyclonal IgG (human). In words: breakthrough curve, 20 mg/mL IgG in PBS on a peptide-WorkBeads column, residence time 5 min.
The target of data set [9] is human polyclonal IgG (human). In words: batch adsorption isotherm of IgG on peptide-WorkBeads resin, BCA of unbound IgG, Langmuir fit.
The target in data set [10] is human polyclonal IgG (human). In words: breakthrough curve, 20 mg/mL IgG in PBS on a peptide-WorkBeads column, residence time 2 min.
In data set [11] the target is human polyclonal IgG (human). As to the kind of experiment: ITC at 25 C, peptide titrated into polyclonal IgG in PBS pH 7.4, independent single-site fit.
Data set [12] addresses human polyclonal IgG (human). As to the kind of experiment: batch incubation of peptide-Toyopearl resin with human IgG, Bradford of unbound IgG; mg IgG bound relative to WQRHGI (the reference itself).
For data set [13], the target named is human polyclonal IgG (human). As to the kind of experiment: batch incubation of peptide-Toyopearl resin with human IgG, Bradford of unbound IgG; mg IgG bound relative to MWRGWQ (the reference itself).

As to GWLHQR, the “% Purity (IgG over total proteins)” value in data set [1] (Gel B, lane FT (flow-through)) amounted to 57.02%. Moreover, the “% Purity (IgG over total eluted proteins)” value in [1] (Gel B, lane R (pH 2.5)) is recorded as 0.00%; in data set [2], 100%. Moreover, the IgG yield result in [1] (competitive conditions, CHO cell culture supernatant) was “lower than expected IgG yields; also recorded: lower IgG yield”.

Take MWRGWQ [MWRGWQ]: the results for the solubility result in data set [3] (highly acidic buffer / lower pH) and in [3] (pH 7.4 buffer / neutral pH) were “soluble; also recorded: could be dissolved” and “not soluble; also recorded: tended to gel”, respectively. Also, the “% Binding (mg IgG bound by variant/mg IgG bound by original sequence × 100%)” value in data set [4] came out at 100.00%.

“Protein A: Protein A adsorbent, industrial standard for mAb capture”: the “% Purity (IgG over total protein)” value in data set [5] (elution lane (pH 4)) is recorded as 100.00%; in data set [5] (lane FT), 55.74%. Also, the “HCP LRV” value in [6] is recorded as 2.5-3.0.

Molecule MWRGWQC(iodoacetyl‑activated TREN WorkBeads resin) (not fully specified) [MWRGWQC (SEQ ID NO:31)-WorkBeads] had a Kd in data set [7] of 8.1 µM. Besides, the figures for the DBC (dynamic binding capacity at 10% breakthrough) (mg IgG/mL resin) in data set [8] and in data set [10] were 55.3 and 44, respectively. In addition, the Qmax (mg IgG/mL resin) in data set [9] came to 57.5.

WQRHGI [WQRHGI (SEQ ID NO:1)]: in data set [11], the Kd came to 58.8 µM and the stoichiometry (N, interacting peptides per IgG) (peptides per IgG) amounted to 10. This molecule registered a % Binding in data set [12] of 100%.

In data set [7], WQRHGIC(iodoacetyl‑activated TREN WorkBeads resin) (not fully specified) [WQRHGIC (SEQ ID NO:30)-WorkBeads] gave a Kd of 3.2 µM. Also, the DBC (dynamic binding capacity at 10% breakthrough) (mg IgG/mL resin) in [8] was determined as 43.8; in [10], 33.6. Moreover, the Qmax (mg IgG/mL resin) in [9] is 52.6.

In turn, MWRGWQ [MWRGWQ (SEQ ID NO:2)] returned a % Binding in data set [13] of 100%.
